Measurements published in patent EP4740966A1.
Where “and” joins values, the source holds several entries; their conditions need not be identical. Equal values may be shown once. Read-outs that look alike come from different tables or passages of the source. Each block holds one substance with its values, some of them ahead of it.

What was measured:
Assay in all cases: co-expression of chains A and B 1:1 in HEK293, Protein A, non-reduced SDS-PAGE band intensity
[1] = target: Human IgG1-Fc, chain B with D356C+T366S+L368A+Y407V (human) [IgG part: P0DOX5]
[2] = target: Human IgG1-Fc, chain B with D356C+T366S+L368A+Y407V (human) [IgG part: P0DOX5]; remark: listed apart in the source
[3] = target: Human IgG1-Fc, chain B with D356C+T366S+L368A+Y407V+F405K (human) [IgG part: P0DOX5]
[4] = target: Human IgG1-Fc, chain B with D356C+T366S+L368A+Y407V+F405K (human) [IgG part: P0DOX5]; remark: listed apart in the source
[5] = target: Human IgG1-Fc, chain B with D356C+T366S+L368A+Y407V+F405K+K360E+Q347E (human) [IgG part: P0DOX5]
[6] = target: Human IgG1-Fc, chain B with D356C+T366S+L368A+Y407V+F405K+Q347R (human) [IgG part: P0DOX5]
[7] = target: Human IgG1-Fc, chain B with D356C+T366S+L368A+Y407V+K360E+Q347E (human) [IgG part: P0DOX5]
[8] = target: Human IgG1-Fc, chain B with D356C+T366S+L368A+Y407V+Q347R (human) [IgG part: P0DOX5]
[9] = target: ScFv-Fc fusion protein (anti-Her2 single chain antibody-Fc), chain A with Y349C+T366W
[10] = target: ScFv-Fc fusion protein, chain A with T366W+F405K
[11] = target: ScFv-Fc fusion protein, chain A with T366W+F405K+D399S
[12] = target: ScFv-Fc fusion protein, chain A with T366W+F405K+Y349D+S354D
[13] = target: ScFv-Fc fusion protein, chain A with T366W+K409A
[14] = target: ScFv-Fc fusion protein, chain A with T366W+K409A+K392D
[15] = target: ScFv-Fc fusion protein, chain A with T366W+K409A+Y349D
[16] = target: ScFv-Fc fusion protein, chain A with T366W+K409A+Y349D+S354D
[17] = target: ScFv-Fc fusion protein, chain A with Y349C+T366W+F405K
[18] = target: ScFv-Fc fusion protein, chain A with Y349C+T366W+F405K; remark: listed apart in the source
[19] = target: ScFv-Fc fusion protein, chain A with Y349C+T366W+F405K; remark: listed apart in the source
[20] = target: ScFv-Fc fusion protein, chain A with Y349C+T366W+F405K+K360E+Q347E
[21] = target: ScFv-Fc fusion protein, chain A with Y349C+T366W+F405K+Q347R
[22] = target: ScFv-Fc fusion protein, chain A with Y349C+T366W+K409A
[23] = target: ScFv-Fc fusion protein, chain A with Y349C+T366W+K409A; remark: listed apart in the source
[24] = target: ScFv-Fc fusion protein, chain A with Y349C+T366W+K409A; remark: listed apart in the source
[25] = target: ScFv-Fc fusion protein, chain A with Y349C+T366W+K409A+K360E+Q347E
[26] = target: ScFv-Fc fusion protein, chain A with Y349C+T366W+K409A+Q347R
[27] = target: ScFv-Fc fusion protein, chain A with Y349C+T366W+K409E
[28] = target: VhH-Fc fusion protein (camel single domain antibody variable region-Fc), chain B with D356C+T366S+L368A+Y407V+F405K
[29] = target: VhH-Fc fusion protein, chain B with D356C+T366S+L368A+Y407V
[30] = target: VhH-Fc fusion protein, chain B with T366S+L368A+Y407V+D399S+F405K
[31] = target: VhH-Fc fusion protein, chain B with T366S+L368A+Y407V+K409A+E357A
[32] = target: VhH-Fc fusion protein, chain B with T366S+L368A+Y407V+K409A+K392D
[33] = target: VhH-Fc fusion protein, chain B with T366S+L368G+Y407A+K409A

Chain of ScFv-Fc fusion protein, chain A with Y349C+T366W+F405K (chain): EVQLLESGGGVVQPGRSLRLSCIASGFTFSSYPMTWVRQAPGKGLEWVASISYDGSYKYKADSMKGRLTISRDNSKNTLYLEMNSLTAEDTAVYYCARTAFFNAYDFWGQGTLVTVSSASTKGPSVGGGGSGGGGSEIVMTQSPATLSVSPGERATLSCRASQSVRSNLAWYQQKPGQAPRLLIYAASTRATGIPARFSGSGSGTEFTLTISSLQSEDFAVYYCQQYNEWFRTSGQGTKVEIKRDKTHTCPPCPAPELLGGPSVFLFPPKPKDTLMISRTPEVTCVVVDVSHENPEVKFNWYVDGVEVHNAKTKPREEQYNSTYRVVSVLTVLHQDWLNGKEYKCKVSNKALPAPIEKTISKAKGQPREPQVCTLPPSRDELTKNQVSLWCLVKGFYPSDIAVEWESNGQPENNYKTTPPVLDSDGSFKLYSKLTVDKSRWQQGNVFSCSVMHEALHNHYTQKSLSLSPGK
Chain of ScFv-Fc fusion protein, chain A with Y349C+T366W+K409A (chain): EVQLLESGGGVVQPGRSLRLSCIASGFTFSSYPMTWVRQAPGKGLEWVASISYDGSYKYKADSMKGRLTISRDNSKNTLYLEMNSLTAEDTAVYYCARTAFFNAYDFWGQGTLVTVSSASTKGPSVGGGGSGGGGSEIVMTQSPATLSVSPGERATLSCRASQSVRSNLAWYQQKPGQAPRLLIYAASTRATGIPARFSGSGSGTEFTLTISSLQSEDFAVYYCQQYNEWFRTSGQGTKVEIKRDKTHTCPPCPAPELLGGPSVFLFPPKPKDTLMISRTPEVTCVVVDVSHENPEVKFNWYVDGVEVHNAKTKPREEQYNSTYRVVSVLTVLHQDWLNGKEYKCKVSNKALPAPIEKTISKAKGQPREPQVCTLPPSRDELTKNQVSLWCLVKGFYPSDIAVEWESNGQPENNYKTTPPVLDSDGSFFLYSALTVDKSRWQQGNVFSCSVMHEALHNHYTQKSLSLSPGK
Chain of ScFv-Fc fusion protein (anti-Her2 single chain antibody-Fc), chain A with Y349C+T366W (chain): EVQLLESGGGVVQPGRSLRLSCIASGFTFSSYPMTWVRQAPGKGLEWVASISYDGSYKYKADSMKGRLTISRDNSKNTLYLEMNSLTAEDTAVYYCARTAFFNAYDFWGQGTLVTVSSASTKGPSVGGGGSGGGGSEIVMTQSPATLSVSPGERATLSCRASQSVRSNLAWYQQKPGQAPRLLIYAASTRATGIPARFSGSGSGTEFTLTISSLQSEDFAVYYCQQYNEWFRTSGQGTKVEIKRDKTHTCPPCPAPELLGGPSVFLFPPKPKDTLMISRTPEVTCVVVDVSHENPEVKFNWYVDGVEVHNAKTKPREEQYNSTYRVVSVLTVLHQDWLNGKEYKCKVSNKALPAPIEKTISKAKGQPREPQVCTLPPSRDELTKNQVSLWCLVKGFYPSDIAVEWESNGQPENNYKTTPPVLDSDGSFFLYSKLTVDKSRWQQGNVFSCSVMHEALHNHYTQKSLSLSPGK
Chain of ScFv-Fc fusion protein, chain A with Y349C+T366W+F405K+K360E+Q347E (chain): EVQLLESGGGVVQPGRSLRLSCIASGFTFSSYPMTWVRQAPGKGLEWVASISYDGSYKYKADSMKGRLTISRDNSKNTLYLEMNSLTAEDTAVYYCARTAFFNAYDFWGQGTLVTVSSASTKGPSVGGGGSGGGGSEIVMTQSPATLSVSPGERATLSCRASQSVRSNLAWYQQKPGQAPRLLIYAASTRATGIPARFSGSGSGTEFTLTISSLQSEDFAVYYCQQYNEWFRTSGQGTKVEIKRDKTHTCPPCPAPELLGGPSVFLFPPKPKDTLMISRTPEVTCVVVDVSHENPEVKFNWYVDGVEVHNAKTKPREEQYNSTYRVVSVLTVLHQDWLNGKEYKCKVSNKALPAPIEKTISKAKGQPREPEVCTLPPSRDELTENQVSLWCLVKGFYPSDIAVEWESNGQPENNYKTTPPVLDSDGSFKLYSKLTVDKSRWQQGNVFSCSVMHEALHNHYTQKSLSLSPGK
Chain of ScFv-Fc fusion protein, chain A with T366W+F405K (chain): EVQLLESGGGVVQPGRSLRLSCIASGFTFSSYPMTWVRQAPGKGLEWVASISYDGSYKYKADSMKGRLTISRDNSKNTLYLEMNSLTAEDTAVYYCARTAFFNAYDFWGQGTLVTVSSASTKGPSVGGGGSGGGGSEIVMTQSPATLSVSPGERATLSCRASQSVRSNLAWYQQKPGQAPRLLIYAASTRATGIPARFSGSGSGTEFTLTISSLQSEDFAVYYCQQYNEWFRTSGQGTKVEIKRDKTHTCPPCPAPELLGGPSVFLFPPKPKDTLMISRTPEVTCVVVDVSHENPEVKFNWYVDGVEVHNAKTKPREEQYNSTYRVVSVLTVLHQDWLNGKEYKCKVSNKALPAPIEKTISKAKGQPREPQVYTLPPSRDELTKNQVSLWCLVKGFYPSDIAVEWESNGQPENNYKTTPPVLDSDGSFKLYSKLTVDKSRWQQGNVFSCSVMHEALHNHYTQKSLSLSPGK
Chain of ScFv-Fc fusion protein, chain A with T366W+K409A+Y349D+S354D (chain): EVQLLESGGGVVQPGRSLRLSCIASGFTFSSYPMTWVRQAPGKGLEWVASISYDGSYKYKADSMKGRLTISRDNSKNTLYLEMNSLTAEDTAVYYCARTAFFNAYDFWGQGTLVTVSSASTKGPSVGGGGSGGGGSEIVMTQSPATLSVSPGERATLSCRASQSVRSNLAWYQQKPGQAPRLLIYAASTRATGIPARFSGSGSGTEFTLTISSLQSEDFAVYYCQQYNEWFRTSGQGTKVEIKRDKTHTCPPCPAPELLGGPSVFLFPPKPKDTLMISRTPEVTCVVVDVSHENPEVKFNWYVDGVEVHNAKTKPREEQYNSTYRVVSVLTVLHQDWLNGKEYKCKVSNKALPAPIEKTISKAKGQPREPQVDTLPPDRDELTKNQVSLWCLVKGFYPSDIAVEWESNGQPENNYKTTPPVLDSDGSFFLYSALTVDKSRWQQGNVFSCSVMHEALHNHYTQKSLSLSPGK
Chain of ScFv-Fc fusion protein, chain A with Y349C+T366W+K409E (chain): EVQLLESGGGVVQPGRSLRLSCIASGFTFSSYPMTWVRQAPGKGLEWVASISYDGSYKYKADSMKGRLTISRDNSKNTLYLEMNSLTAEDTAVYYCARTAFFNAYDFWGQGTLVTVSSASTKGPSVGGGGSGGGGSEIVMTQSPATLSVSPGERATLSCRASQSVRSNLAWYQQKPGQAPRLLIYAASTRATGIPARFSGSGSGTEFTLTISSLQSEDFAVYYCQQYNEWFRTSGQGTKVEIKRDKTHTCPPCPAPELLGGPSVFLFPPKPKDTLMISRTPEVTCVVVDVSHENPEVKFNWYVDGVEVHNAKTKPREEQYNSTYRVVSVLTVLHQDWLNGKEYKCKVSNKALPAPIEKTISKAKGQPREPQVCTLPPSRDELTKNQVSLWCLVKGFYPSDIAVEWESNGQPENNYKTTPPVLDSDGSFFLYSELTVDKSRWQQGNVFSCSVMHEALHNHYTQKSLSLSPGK
Chain of ScFv-Fc fusion protein, chain A with T366W+F405K+Y349D+S354D (chain): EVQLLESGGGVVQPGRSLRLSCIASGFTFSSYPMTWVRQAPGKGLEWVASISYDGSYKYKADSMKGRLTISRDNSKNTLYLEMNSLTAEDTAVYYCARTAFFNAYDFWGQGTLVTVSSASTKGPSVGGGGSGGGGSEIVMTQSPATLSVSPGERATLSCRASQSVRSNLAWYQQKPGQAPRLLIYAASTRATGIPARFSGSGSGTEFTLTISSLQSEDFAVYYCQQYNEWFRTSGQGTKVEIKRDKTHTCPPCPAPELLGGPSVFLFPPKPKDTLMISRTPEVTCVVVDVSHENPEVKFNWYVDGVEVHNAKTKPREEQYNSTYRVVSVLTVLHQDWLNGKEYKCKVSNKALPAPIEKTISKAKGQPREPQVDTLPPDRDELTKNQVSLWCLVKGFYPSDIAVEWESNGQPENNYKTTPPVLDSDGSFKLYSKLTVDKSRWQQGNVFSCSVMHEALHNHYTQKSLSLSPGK
Chain of ScFv-Fc fusion protein, chain A with Y349C+T366W+K409A+Q347R (chain): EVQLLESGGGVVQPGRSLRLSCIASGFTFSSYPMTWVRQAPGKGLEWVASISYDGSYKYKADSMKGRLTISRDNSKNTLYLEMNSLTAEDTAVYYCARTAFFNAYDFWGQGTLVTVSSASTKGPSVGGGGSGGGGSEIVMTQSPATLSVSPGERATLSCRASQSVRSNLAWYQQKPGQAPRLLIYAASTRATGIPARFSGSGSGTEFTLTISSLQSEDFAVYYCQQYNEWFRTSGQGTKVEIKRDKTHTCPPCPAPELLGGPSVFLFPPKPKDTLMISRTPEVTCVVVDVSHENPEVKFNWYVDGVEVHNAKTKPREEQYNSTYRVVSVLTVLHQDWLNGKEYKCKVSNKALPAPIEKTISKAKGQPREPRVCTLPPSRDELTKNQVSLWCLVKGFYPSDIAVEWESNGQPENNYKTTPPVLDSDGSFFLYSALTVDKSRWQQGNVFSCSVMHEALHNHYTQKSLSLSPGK
Chain of ScFv-Fc fusion protein, chain A with T366W+K409A+K392D (chain): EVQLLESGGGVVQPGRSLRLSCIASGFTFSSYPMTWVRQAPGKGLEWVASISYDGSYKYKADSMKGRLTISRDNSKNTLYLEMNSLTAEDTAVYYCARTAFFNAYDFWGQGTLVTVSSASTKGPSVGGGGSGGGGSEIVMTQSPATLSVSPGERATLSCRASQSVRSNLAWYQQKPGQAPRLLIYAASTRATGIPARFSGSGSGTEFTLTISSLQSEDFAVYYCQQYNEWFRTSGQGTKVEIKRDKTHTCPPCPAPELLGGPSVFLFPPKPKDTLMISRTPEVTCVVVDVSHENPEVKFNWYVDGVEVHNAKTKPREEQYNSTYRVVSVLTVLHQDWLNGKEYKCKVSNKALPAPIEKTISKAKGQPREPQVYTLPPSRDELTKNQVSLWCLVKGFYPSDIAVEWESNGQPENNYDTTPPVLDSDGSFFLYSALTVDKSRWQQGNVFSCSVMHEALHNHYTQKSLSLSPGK

Fc homodimer (%) [1]: 20%
Fc homodimer (%) [2]: 23%
Substance: Human IgG1-Fc, chain B with D356C+T366S+L368A+Y407V (from UniProt P0DOX5 223-449)

Fc homodimer (%) [3]: 18% and 13%
Fc homodimer (%) [4]: 10%
Substance: Human IgG1-Fc, chain B with D356C+T366S+L368A+Y407V+F405K (from UniProt P0DOX5 223-449)

Fc homodimer (%) [5]: 8%
Substance: Human IgG1-Fc, chain B with D356C+T366S+L368A+Y407V+F405K+K360E+Q347E (from UniProt P0DOX5 223-449)

Fc homodimer (%) [6]: 12%
Substance: Human IgG1-Fc, chain B with D356C+T366S+L368A+Y407V+F405K+Q347R (from UniProt P0DOX5 223-449)

Fc homodimer (%) [7]: 24%
Substance: Human IgG1-Fc, chain B with D356C+T366S+L368A+Y407V+K360E+Q347E (from UniProt P0DOX5 223-449)

Fc homodimer (%) [8]: 14%
Substance: Human IgG1-Fc, chain B with D356C+T366S+L368A+Y407V+Q347R (from UniProt P0DOX5 223-449)

ScFv-Fc homodimer (%) [9]: 29% and 24%
Substance: ScFv-Fc fusion protein (anti-Her2 single chain antibody-Fc), chain A with Y349C+T366W

ScFv-Fc homodimer (%) [10]: 5%
Substance: ScFv-Fc fusion protein, chain A with T366W+F405K

ScFv-Fc homodimer (%) [11]: 6%
Substance: ScFv-Fc fusion protein, chain A with T366W+F405K+D399S

ScFv-Fc homodimer (%) [12]: 9%
Substance: ScFv-Fc fusion protein, chain A with T366W+F405K+Y349D+S354D

ScFv-Fc homodimer (%) [13]: 15%
Substance: ScFv-Fc fusion protein, chain A with T366W+K409A

ScFv-Fc homodimer (%) [14]: 7%
Substance: ScFv-Fc fusion protein, chain A with T366W+K409A+K392D

ScFv-Fc homodimer (%) [15]: 14%
Substance: ScFv-Fc fusion protein, chain A with T366W+K409A+Y349D

ScFv-Fc homodimer (%) [16]: 10%
Substance: ScFv-Fc fusion protein, chain A with T366W+K409A+Y349D+S354D

ScFv-Fc homodimer (%) [17]: 10%
ScFv-Fc homodimer (%) [18]: 9%
ScFv-Fc homodimer (%) [19]: 17%
Substance: ScFv-Fc fusion protein, chain A with Y349C+T366W+F405K

ScFv-Fc homodimer (%) [20]: 14%
Substance: ScFv-Fc fusion protein, chain A with Y349C+T366W+F405K+K360E+Q347E

ScFv-Fc homodimer (%) [21]: 14%
Substance: ScFv-Fc fusion protein, chain A with Y349C+T366W+F405K+Q347R

ScFv-Fc homodimer (%) [22]: 10%
ScFv-Fc homodimer (%) [23]: 13%
ScFv-Fc homodimer (%) [24]: 21%
Substance: ScFv-Fc fusion protein, chain A with Y349C+T366W+K409A

ScFv-Fc homodimer (%) [25]: 24%
Substance: ScFv-Fc fusion protein, chain A with Y349C+T366W+K409A+K360E+Q347E

ScFv-Fc homodimer (%) [26]: 21%
Substance: ScFv-Fc fusion protein, chain A with Y349C+T366W+K409A+Q347R

ScFv-Fc homodimer (%) [27]: 25%
Substance: ScFv-Fc fusion protein, chain A with Y349C+T366W+K409E

VhH-Fc homodimer (%) [28]: 19%
Substance: VhH-Fc fusion protein (camel single domain antibody variable region-Fc), chain B with D356C+T366S+L368A+Y407V+F405K

VhH-Fc homodimer (%) [29]: 27%
Substance: VhH-Fc fusion protein, chain B with D356C+T366S+L368A+Y407V

VhH-Fc homodimer (%) [30]: 13%
Substance: VhH-Fc fusion protein, chain B with T366S+L368A+Y407V+D399S+F405K

VhH-Fc homodimer (%) [31]: 7%
Substance: VhH-Fc fusion protein, chain B with T366S+L368A+Y407V+K409A+E357A

VhH-Fc homodimer (%) [32]: 13%
Substance: VhH-Fc fusion protein, chain B with T366S+L368A+Y407V+K409A+K392D

VhH-Fc homodimer (%) [33]: 7%
Substance: VhH-Fc fusion protein, chain B with T366S+L368G+Y407A+K409A
